B1: scFv; the commonest letter at each place (parent)
chain 1: EVKLDETGGGLVQPGRPMKLSCVASGFTFSDYWMNWVRQSPEKGLEWVAQIRNKPYNYETYYSDSVKGRFTISRDDSKSSVYLQMNNLRVEDMGIYYCTGSYYGMDYWGQGTSVTVS
chain 2: DVVMTQTPLSLPVSLGDQASISCRSSQSLVHSNGNTYLRWYLQKPGQSPKVLIYKVSNRFSGVPDRFSGSGSGTDFTLKISRVEAEDLGVYFCSQSTHVPWTFGGGTKLEIK

Columns and labels:
[1] = variants of: B1; assay: Kd (Tite-Seq); settings: with fluorescein; format: scFv 4-4-20, heavy + light
[2] = variants of: B1; assay: yeast surface expression (ratio to wild type); higher = more expressed; settings: format: scFv 4-4-20, heavy + light

| Kd [1] | Variant | yeast surface expression [2] |
| --- | --- | --- |
| ≥ 10 µM | chain 1 M34K W36F | 1.23 |
| ≥ 10 µM | chain 1 M34K W36M | 0.273 |
| ≥ 10 µM | chain 1 M34I N35W | 0.41 |
| ≥ 10 µM | chain 1 G104M Y107H | 0.555 |
| 0.495 µM | chain 1 M34A V37I | 0.837 |
| ≥ 10 µM | chain 1 M34Y W36K | 0.113 |
| ≥ 10 µM | chain 1 M34Y W36V | 0.522 |
| ≥ 10 µM | chain 1 G104K Y107N | 0.424 |
| ≥ 10 µM | chain 1 G104T D106T Y107L | 0.547 |
| ≥ 10 µM | chain 1 G104I G109K | 0.246 |
| ≥ 10 µM | chain 1 G104K G109F | 0.282 |
| ≥ 10 µM | chain 1 G104K G109C | 0.195 |
| ≥ 10 µM | chain 1 M34V W36N | 0.502 |
| 0.0562 µM | chain 1 M34F W36M | 0.872 |
| 0.00468 µM | chain 1 M34F W36Y | 0.948 |
| ≥ 10 µM | chain 1 M34L V37T | 0.546 |
| ≥ 10 µM | chain 1 M34R N35M | 1.25 |
| ≥ 10 µM | chain 1 G104S W108E | 0.198 |
| ≥ 10 µM | chain 1 G104S W108S | 0.304 |
| ≥ 10 µM | chain 1 G104S W108R | 0.26 |
| ≥ 10 µM | chain 1 M34Q V37T | 0.629 |
| ≥ 10 µM | chain 1 G104T G109L | 0.241 |
| ≥ 10 µM | chain 1 G104T G109D | 0.235 |
| 0.0353 µM | chain 1 M34I V37S | 0.776 |

| Kd [1] | Variant | yeast surface expression [2] |
| --- | --- | --- |
| 0.00184 µM | chain 1 M34I V37Q | 0.474 |
| 0.00184 µM | chain 1 M34I V37M | 0.847 |
| 0.00827 µM | chain 1 M34I V37I | 0.831 |
| 0.02 µM | chain 1 M34T V37C | 0.697 |
| ≥ 10 µM | chain 1 M34A W36M | 0.249 |
| ≥ 10 µM | chain 1 M34A W36T | 0.544 |
| ≥ 10 µM | chain 1 G104M M105R | 0.619 |
| ≥ 10 µM | chain 1 G104I Y107D | 0.2 |
| ≥ 10 µM | chain 1 G104I Y107N | 0.247 |
| ≥ 10 µM | chain 1 G104T D106C Y107Q | 0.31 |
| ≥ 10 µM | chain 1 M34I N35Y V37Y | 0.45 |
| ≥ 10 µM | chain 1 M34E W36M | 0.428 |
| ≥ 10 µM | chain 1 M34L W36V | 0.558 |
| ≥ 10 µM | chain 1 M34C W36L | 0.524 |
| ≥ 10 µM | chain 1 G104Q G109T | 0.272 |
| ≥ 10 µM | chain 1 G104Q G109M | 0.0981 |
| ≥ 10 µM | chain 1 G104Q G109Q | 0.248 |
| ≥ 10 µM | chain 1 G104V Y107I | 0.443 |
| ≥ 10 µM | chain 1 G104V Y107K | 0.324 |
| 0.0692 µM | chain 1 M34K N35A | 0.175 |
| ≥ 10 µM | chain 1 M34K N35S | 1.46 |
| ≥ 10 µM | chain 1 G104V W108A | 0.141 |
| ≥ 10 µM | chain 1 M34G V37R | 1.62 |
| ≥ 10 µM | chain 1 G104Q Y107G W108I | 0.271 |

| Kd [1] | Variant | yeast surface expression [2] |
| --- | --- | --- |
| ≥ 10 µM | chain 1 G104K D106H | 0.594 |
| ≥ 10 µM | chain 1 M34R W36P | 1.27 |
| ≥ 10 µM | chain 1 G104T Y107P | 0.313 |
| ≥ 10 µM | chain 1 M34I W36K | 0.24 |
| 0.712 µM | chain 1 M34I W36M | 0.783 |
| 0.0107 µM | chain 1 M34I W36F | 0.811 |
| ≥ 10 µM | chain 1 M34I W36S | 0.556 |
| ≥ 10 µM | chain 1 M34I W36Q | 0.283 |
| ≥ 10 µM | chain 1 M34W W36T | 0.686 |
| ≥ 10 µM | chain 1 M34T W36L | 0.455 |
| ≥ 10 µM | chain 1 M34T W36Y | 0.649 |
| ≥ 10 µM | chain 1 M34Q W36E | 2.19 |
| ≥ 10 µM | chain 1 G104H Y107M | 0.478 |
| ≥ 10 µM | chain 1 G104H Y107R | 0.518 |
| ≥ 10 µM | chain 1 G104L D106G | 0.169 |
| ≥ 10 µM | chain 1 G104L M105L | 0.303 |
| ≥ 10 µM | chain 1 M34Y N35R | 0.505 |
| ≥ 10 µM | chain 1 M34Y N35V | 0.434 |
| ≥ 10 µM | chain 1 M34T N35D | 0.415 |
| 0.0107 µM | chain 1 M34Y V37M | 0.807 |
| ≥ 10 µM | chain 1 G104M G109L | 0.0989 |
| ≥ 10 µM | chain 1 G104L Y107E | 0.499 |
| ≥ 10 µM | chain 1 G104L Y107C | 0.133 |
| ≥ 10 µM | chain 1 M34H N35P | 2.76 |

| Kd [1] | Variant | yeast surface expression [2] |
| --- | --- | --- |
| ≥ 10 µM | chain 1 M34H N35I | 0.552 |
| ≥ 10 µM | chain 1 G104Q M105C | 0.62 |
| ≥ 10 µM | chain 1 G104Y G109T | 0.0981 |
| 0.021 µM | chain 1 G104Y G109R | 1.08 |
| ≥ 10 µM | chain 1 M34H V37W | 0.602 |
| ≥ 10 µM | chain 1 M34H V37P | 0.3 |
| ≥ 10 µM | chain 1 G104N D106W | 0.316 |
| ≥ 10 µM | chain 1 G104T W108F | 0.329 |
| ≥ 10 µM | chain 1 G104T W108A | 0.326 |
| 0.0154 µM | chain 1 M34N N35H | 1.84 |
| ≥ 10 µM | chain 1 M34N N35V | 0.505 |
| ≥ 10 µM | chain 1 G104T D106Y | 0.331 |
| ≥ 10 µM | chain 1 G104R Y107R | 0.263 |
| ≥ 10 µM | chain 1 G104R Y107W | 0.257 |
| ≥ 10 µM | chain 1 M34G W36A | 1.01 |
| ≥ 10 µM | chain 1 M34G W36M | 1.94 |
| ≥ 10 µM | chain 1 G104H W108R | 0.272 |
| ≥ 10 µM | chain 1 G104I W108D | 0.236 |
| ≥ 10 µM | chain 1 G104I W108H | 0.102 |
| ≥ 10 µM | chain 1 M34Q N35S | 0.621 |
| ≥ 10 µM | chain 1 M34P W36N | 0.506 |
| ≥ 10 µM | chain 1 M34P W36L | 0.216 |
| ≥ 10 µM | chain 1 M105A | 1.01 |
| 0.0657 µM | chain 1 M34C N35L V37F | 0.501 |

| Kd [1] | Variant | yeast surface expression [2] |
| --- | --- | --- |
| ≥ 10 µM | chain 1 M34P | 0.508 |
| 0.0107 µM | chain 1 M34Y | 1.05 |
| ≥ 10 µM | chain 1 M34H | 0.737 |
| 0.00293 µM | chain 1 M34T | 0.777 |
| 9.5 µM | chain 1 M34R | 0.851 |
| 0.00142 µM | chain 1 M34L | 0.971 |
| 1.23 µM | chain 1 M34G | 0.682 |
| 0.0391 µM | chain 1 M34W | 0.869 |
| 0.694 µM | chain 1 M34K | 0.913 |
| ≥ 10 µM | chain 1 M34D | 0.406 |
| 9.5 µM | chain 1 M34Q | 0.801 |
| 0.00226 µM | chain 1 M34F | 0.988 |
| 0.00361 µM | chain 1 M34V | 0.876 |
| ≥ 10 µM | chain 1 M34E | 0.617 |
| 0.00826 µM | chain 1 M34A | 0.783 |
| 0.151 µM | chain 1 M34S | 0.652 |
| 0.00273 µM | chain 1 M34I | 0.873 |
| 2.28 µM | chain 1 M34N | 0.695 |
| 0.00326 µM | chain 1 M34C | 0.712 |
| ≥ 10 µM | chain 1 M34K V37W | 0.494 |

— the FLAb antibody collection (doi:10.7554/elife.23156)
